Tested on: Myc-tagged MIF1/MSP58 protein (plasmid pCM562), expressed in CHO stable clone #34
Sequence (chain, as listed by the source): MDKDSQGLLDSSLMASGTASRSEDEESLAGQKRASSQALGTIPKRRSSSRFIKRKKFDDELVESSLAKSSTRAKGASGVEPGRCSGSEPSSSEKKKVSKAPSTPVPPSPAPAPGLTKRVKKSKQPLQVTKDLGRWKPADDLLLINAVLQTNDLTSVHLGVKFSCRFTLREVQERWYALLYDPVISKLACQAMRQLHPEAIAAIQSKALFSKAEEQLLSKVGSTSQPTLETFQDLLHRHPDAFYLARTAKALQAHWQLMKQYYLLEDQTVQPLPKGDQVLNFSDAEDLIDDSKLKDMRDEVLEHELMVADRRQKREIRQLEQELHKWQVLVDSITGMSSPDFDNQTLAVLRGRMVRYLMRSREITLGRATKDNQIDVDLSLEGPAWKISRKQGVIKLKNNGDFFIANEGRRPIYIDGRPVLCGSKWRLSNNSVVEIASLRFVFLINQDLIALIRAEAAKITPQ

For “MEKK1 of CHO cells (cellular, activated by sorbitol)”, the “JNK activation (in vitro GST-Jun(1-223) phosphorylation) after 200 mM sorbitol, CHOMIF1 #34 against CHOpCDNA3” value was “Cells expressing MIF1 showed an inhibition of JNK activation (revelated by weak GST-JUNphosphorylation) in response to sorbitol incubation”.

Source: patent US20050250143
